In patent US20200399314A1 (MEDIKINE, published 2020):

T1: human IL-2Rα subunit (human, UniProt P01589 22-213, limits assumed)
T1 construct: also called CD25
T1 sequence (looked up): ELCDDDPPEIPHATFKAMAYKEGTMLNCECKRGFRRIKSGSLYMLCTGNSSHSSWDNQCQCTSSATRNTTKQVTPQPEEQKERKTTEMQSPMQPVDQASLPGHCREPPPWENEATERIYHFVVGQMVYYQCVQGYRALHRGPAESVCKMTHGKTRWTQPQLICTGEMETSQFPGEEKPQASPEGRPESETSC


biological target: T1, human IL-2Rα subunit

IC50	Binder
< 100 µM	KLWCQNNPGNSICDMY [SEQ ID NO 132]
< 100 µM	RLFCLMNPGPPDCWIY [SEQ ID NO 134]
< 100 µM	FFLCDDFPGLPRCEWI [SEQ ID NO 128]
< 100 µM	GLRCYFDPGSQICTFL [SEQ ID NO 129]
< 100 µM	GQRCTYDPGQDACVFS [SEQ ID NO 130]
< 100 µM	GSRCYWDPGREVCIFK [SEQ ID NO 131]
< 100 µM	KSWCFDHPGYPICQFY [SEQ ID NO 133]
